Laboratory results published in IntAct's records for PubMed 29039417.

B1: Protein PTHB1 (Homo sapiens), Q3SYG4 (parent)
chain: MSLFKARDWWSTILGDKEEFDQGCLCLANVDNSGNGQDKIIVGSFMGYLRIFSPHPAKTGDGAQAEDLLLEVDLRDPVLQVEVGKFVSGTEMLHLAVLHSRKLCVYSVSGTLGNVEHGNQCQMKLMYEHNLQRTACNMTYGSFGGVKGRDLICIQSMDGMLMVFEQESYAFGRFLPGFLLPGPLAYSSRTDSFLTVSSCQQVESYKYQVLAFATDADKRQETEQQKLGSGKRLVVDWTLNIGEQALDICIVSFNQSASSVFVLGERNFFCLKDNGQIRFMKKLDWSPSCFLPYCSVSEGTINTLIGNHNNMLHIYQDVTLKWATQLPHIPVAVRVGCLHDLKGVIVTLSDDGHLQCSYLGTDPSLFQAPNVQSRELNYDELDVEMKELQKIIKDVNKSQGVWPMTEREDDLNVSVVVSPNFDSVSQATDVEVGTDLVPSVTVKVTLQNRVILQKAKLSVYVQPPLELTCDQFTFEFMTPDLTRTVSFSVYLKRSYTPSELEGNAVVSYSRPTDRNPDGIPRVIQCKFRLPLKLICLPGQPSKTASHKITIDTNKSPVSLLSLFPGFASQSDDDQVNVMGFHFLGGARITVLASKTSQRYRIQSEQFEDLWLITNELILRLQEYFEKQGVKDFACSFSGSIPLQEYFELIDHHFELRINGEKLEELLSERAVQFRAIQRRLLARFKDKTPAPLQHLDTLLDGTYKQVIALADAVEENQGNLFQSFTRLKSATHLVILLIALWQKLSADQVAILEAAFLPLQEDTQELGWEETVDAAISHLLKTCLSKSSKEQALNLNSQLNIPKDTSQLKKHITLLCDRLSKGGRLCLSTDAAAPQTMVMPGGCTTIPESDLEERSVEQDSTELFTNHRHLTAETPRPEVSPLQGVSE
partner: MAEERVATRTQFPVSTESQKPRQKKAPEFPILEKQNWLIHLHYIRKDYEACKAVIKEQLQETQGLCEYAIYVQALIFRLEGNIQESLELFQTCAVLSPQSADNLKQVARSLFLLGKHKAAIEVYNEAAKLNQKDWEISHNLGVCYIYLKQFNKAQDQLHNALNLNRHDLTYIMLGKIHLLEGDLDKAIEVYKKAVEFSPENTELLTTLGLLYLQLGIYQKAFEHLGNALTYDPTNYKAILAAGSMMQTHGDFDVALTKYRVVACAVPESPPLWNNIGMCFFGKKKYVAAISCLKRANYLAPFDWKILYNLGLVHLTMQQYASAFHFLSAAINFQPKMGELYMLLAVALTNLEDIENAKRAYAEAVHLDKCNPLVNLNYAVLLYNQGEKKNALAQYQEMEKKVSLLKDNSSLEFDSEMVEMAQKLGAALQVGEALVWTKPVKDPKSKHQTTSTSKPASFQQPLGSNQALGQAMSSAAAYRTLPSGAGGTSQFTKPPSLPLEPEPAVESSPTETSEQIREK

Variants of: B1
Conditions: with bbs4_human BBS4, Q96RK4

Q: With L665A as the variant, how does the “effect of a mutation on the interaction” value read?
A: with no effect

Q: With L665E as the variant, how does the “effect of a mutation on the interaction” value read?
A: with no effect

Q: L665F was tested. Which “effect of a mutation on the interaction” value did it give?
A: disrupting interaction strength

Q: Which “effect of a mutation on the interaction” value does the source give for L665K here?
A: with no effect

Q: For L665R, which “effect of a mutation on the interaction” value is on record?
A: disrupting interaction strength

Q: Which “effect of a mutation on the interaction” value does the source give for L666A here?
A: with no effect

Q: Which “effect of a mutation on the interaction” value does the source give for L666E here?
A: disrupting interaction strength

Q: With L666K as the variant, how does the “effect of a mutation on the interaction” value read?
A: with no effect

Q: How did the “effect of a mutation on the interaction” value turn out when S667A was run?
A: with no effect

Q: How did the “effect of a mutation on the interaction” value turn out when S667E was run?
A: with no effect

Q: For S667K, which “effect of a mutation on the interaction” value is on record?
A: with no effect

Q: With E668A as the variant, how does the “effect of a mutation on the interaction” value read?
A: with no effect

Q: Which “effect of a mutation on the interaction” value does the source give for E668K here?
A: with no effect

Q: R669A was tested. Which “effect of a mutation on the interaction” value did it give?
A: with no effect

Q: How did the “effect of a mutation on the interaction” value turn out when R669E was run?
A: with no effect

Q: Which “effect of a mutation on the interaction” value does the source give for R669K here?
A: with no effect

Q: For A670E, which “effect of a mutation on the interaction” value is on record?
A: with no effect

Q: For A670K, which “effect of a mutation on the interaction” value is on record?
A: with no effect

Q: How did the “effect of a mutation on the interaction” value turn out when V671A was run?
A: with no effect

Q: How did the “effect of a mutation on the interaction” value turn out when V671E was run?
A: with no effect

Q: V671I was tested. Which “effect of a mutation on the interaction” value did it give?
A: disrupting interaction strength

Q: V671K was tested. Which “effect of a mutation on the interaction” value did it give?
A: with no effect

Q: V671R was tested. Which “effect of a mutation on the interaction” value did it give?
A: disrupting interaction strength

Q: Which “effect of a mutation on the interaction” value does the source give for Q672A here?
A: with no effect

Q: Which “effect of a mutation on the interaction” value does the source give for Q672E here?
A: with no effect

Q: How did the “effect of a mutation on the interaction” value turn out when Q672K was run?
A: with no effect

Q: With F673A as the variant, how does the “effect of a mutation on the interaction” value read?
A: with no effect

Q: F673E was tested. Which “effect of a mutation on the interaction” value did it give?
A: with no effect

Q: With F673K as the variant, how does the “effect of a mutation on the interaction” value read?
A: with no effect

Q: With R674A as the variant, how does the “effect of a mutation on the interaction” value read?
A: disrupting interaction strength

Q: R674E was tested. Which “effect of a mutation on the interaction” value did it give?
A: with no effect

Q: R674K was tested. Which “effect of a mutation on the interaction” value did it give?
A: with no effect

Q: With R674P as the variant, how does the “effect of a mutation on the interaction” value read?
A: disrupting interaction strength

Q: How did the “effect of a mutation on the interaction” value turn out when R674Q was run?
A: disrupting interaction strength

Q: R674W was tested. Which “effect of a mutation on the interaction” value did it give?
A: disrupting interaction strength

Q: Which “effect of a mutation on the interaction” value does the source give for A675E here?
A: with no effect

Q: For A675H, which “effect of a mutation on the interaction” value is on record?
A: disrupting interaction strength

Q: For A675K, which “effect of a mutation on the interaction” value is on record?
A: with no effect

Q: With I676A as the variant, how does the “effect of a mutation on the interaction” value read?
A: with no effect

Q: With I676E as the variant, how does the “effect of a mutation on the interaction” value read?
A: with no effect

Q: I676K was tested. Which “effect of a mutation on the interaction” value did it give?
A: with no effect

Q: Which “effect of a mutation on the interaction” value does the source give for Q677A here?
A: with no effect

Q: Q677E was tested. Which “effect of a mutation on the interaction” value did it give?
A: with no effect

Q: Q677K was tested. Which “effect of a mutation on the interaction” value did it give?
A: with no effect

Q: With Q677Y as the variant, how does the “effect of a mutation on the interaction” value read?
A: disrupting interaction strength

Q: How did the “effect of a mutation on the interaction” value turn out when R678A was run?
A: with no effect

Q: With R678E as the variant, how does the “effect of a mutation on the interaction” value read?
A: with no effect

Q: For R678G, which “effect of a mutation on the interaction” value is on record?
A: disrupting interaction strength

Q: For R678H, which “effect of a mutation on the interaction” value is on record?
A: disrupting interaction strength

Q: With R678K as the variant, how does the “effect of a mutation on the interaction” value read?
A: disrupting interaction strength

Q: How did the “effect of a mutation on the interaction” value turn out when R679A was run?
A: with no effect

Q: Which “effect of a mutation on the interaction” value does the source give for R679E here?
A: with no effect

Q: R679K was tested. Which “effect of a mutation on the interaction” value did it give?
A: with no effect

Q: R679L was tested. Which “effect of a mutation on the interaction” value did it give?
A: disrupting interaction strength

Q: R679W was tested. Which “effect of a mutation on the interaction” value did it give?
A: disrupting interaction strength

Q: Which “effect of a mutation on the interaction” value does the source give for L680A here?
A: with no effect

Q: With L680E as the variant, how does the “effect of a mutation on the interaction” value read?
A: with no effect

Q: With L680K as the variant, how does the “effect of a mutation on the interaction” value read?
A: with no effect

Q: With L681A as the variant, how does the “effect of a mutation on the interaction” value read?
A: with no effect

Q: For L681E, which “effect of a mutation on the interaction” value is on record?
A: with no effect

Q: With L681K as the variant, how does the “effect of a mutation on the interaction” value read?
A: with no effect

Q: With A682E as the variant, how does the “effect of a mutation on the interaction” value read?
A: with no effect

Q: How did the “effect of a mutation on the interaction” value turn out when A682K was run?
A: with no effect

Q: R683A was tested. Which “effect of a mutation on the interaction” value did it give?
A: with no effect

Q: Which “effect of a mutation on the interaction” value does the source give for R683E here?
A: with no effect

Q: How did the “effect of a mutation on the interaction” value turn out when R683K was run?
A: with no effect

Q: Which “effect of a mutation on the interaction” value does the source give for F684A here?
A: with no effect

Q: How did the “effect of a mutation on the interaction” value turn out when F684E was run?
A: with no effect

Q: For F684K, which “effect of a mutation on the interaction” value is on record?
A: with no effect

Q: Which “effect of a mutation on the interaction” value does the source give for K685A here?
A: with no effect

Q: With K685E as the variant, how does the “effect of a mutation on the interaction” value read?
A: disrupting interaction strength

Q: Which “effect of a mutation on the interaction” value does the source give for D686A here?
A: with no effect

Q: Which “effect of a mutation on the interaction” value does the source give for D686E here?
A: with no effect

Q: For D686K, which “effect of a mutation on the interaction” value is on record?
A: with no effect

Q: For K687A, which “effect of a mutation on the interaction” value is on record?
A: with no effect

Q: For K687E, which “effect of a mutation on the interaction” value is on record?
A: with no effect

Q: With T688A as the variant, how does the “effect of a mutation on the interaction” value read?
A: with no effect

Q: T688E was tested. Which “effect of a mutation on the interaction” value did it give?
A: with no effect

Q: Which “effect of a mutation on the interaction” value does the source give for T688K here?
A: with no effect

Q: How did the “effect of a mutation on the interaction” value turn out when P689A was run?
A: with no effect

Q: With P689E as the variant, how does the “effect of a mutation on the interaction” value read?
A: with no effect

Q: P689K was tested. Which “effect of a mutation on the interaction” value did it give?
A: with no effect

Q: Which “effect of a mutation on the interaction” value does the source give for A690E here?
A: with no effect

Q: A690K was tested. Which “effect of a mutation on the interaction” value did it give?
A: disrupting interaction strength

Q: A690V was tested. Which “effect of a mutation on the interaction” value did it give?
A: disrupting interaction strength
